Our source for the reduction of serum cholesterol in LAHB mice after AAV8.TBG.hLDLR (% reduction of serum cholesterol) values is US20200230184A1.

This test deals with human ApoB100 (human) (UniProt P04114). Nature of the test: cell-based or functional assay.
Sequence of UniProt P04114 (P04114 28-4563 limits assumed): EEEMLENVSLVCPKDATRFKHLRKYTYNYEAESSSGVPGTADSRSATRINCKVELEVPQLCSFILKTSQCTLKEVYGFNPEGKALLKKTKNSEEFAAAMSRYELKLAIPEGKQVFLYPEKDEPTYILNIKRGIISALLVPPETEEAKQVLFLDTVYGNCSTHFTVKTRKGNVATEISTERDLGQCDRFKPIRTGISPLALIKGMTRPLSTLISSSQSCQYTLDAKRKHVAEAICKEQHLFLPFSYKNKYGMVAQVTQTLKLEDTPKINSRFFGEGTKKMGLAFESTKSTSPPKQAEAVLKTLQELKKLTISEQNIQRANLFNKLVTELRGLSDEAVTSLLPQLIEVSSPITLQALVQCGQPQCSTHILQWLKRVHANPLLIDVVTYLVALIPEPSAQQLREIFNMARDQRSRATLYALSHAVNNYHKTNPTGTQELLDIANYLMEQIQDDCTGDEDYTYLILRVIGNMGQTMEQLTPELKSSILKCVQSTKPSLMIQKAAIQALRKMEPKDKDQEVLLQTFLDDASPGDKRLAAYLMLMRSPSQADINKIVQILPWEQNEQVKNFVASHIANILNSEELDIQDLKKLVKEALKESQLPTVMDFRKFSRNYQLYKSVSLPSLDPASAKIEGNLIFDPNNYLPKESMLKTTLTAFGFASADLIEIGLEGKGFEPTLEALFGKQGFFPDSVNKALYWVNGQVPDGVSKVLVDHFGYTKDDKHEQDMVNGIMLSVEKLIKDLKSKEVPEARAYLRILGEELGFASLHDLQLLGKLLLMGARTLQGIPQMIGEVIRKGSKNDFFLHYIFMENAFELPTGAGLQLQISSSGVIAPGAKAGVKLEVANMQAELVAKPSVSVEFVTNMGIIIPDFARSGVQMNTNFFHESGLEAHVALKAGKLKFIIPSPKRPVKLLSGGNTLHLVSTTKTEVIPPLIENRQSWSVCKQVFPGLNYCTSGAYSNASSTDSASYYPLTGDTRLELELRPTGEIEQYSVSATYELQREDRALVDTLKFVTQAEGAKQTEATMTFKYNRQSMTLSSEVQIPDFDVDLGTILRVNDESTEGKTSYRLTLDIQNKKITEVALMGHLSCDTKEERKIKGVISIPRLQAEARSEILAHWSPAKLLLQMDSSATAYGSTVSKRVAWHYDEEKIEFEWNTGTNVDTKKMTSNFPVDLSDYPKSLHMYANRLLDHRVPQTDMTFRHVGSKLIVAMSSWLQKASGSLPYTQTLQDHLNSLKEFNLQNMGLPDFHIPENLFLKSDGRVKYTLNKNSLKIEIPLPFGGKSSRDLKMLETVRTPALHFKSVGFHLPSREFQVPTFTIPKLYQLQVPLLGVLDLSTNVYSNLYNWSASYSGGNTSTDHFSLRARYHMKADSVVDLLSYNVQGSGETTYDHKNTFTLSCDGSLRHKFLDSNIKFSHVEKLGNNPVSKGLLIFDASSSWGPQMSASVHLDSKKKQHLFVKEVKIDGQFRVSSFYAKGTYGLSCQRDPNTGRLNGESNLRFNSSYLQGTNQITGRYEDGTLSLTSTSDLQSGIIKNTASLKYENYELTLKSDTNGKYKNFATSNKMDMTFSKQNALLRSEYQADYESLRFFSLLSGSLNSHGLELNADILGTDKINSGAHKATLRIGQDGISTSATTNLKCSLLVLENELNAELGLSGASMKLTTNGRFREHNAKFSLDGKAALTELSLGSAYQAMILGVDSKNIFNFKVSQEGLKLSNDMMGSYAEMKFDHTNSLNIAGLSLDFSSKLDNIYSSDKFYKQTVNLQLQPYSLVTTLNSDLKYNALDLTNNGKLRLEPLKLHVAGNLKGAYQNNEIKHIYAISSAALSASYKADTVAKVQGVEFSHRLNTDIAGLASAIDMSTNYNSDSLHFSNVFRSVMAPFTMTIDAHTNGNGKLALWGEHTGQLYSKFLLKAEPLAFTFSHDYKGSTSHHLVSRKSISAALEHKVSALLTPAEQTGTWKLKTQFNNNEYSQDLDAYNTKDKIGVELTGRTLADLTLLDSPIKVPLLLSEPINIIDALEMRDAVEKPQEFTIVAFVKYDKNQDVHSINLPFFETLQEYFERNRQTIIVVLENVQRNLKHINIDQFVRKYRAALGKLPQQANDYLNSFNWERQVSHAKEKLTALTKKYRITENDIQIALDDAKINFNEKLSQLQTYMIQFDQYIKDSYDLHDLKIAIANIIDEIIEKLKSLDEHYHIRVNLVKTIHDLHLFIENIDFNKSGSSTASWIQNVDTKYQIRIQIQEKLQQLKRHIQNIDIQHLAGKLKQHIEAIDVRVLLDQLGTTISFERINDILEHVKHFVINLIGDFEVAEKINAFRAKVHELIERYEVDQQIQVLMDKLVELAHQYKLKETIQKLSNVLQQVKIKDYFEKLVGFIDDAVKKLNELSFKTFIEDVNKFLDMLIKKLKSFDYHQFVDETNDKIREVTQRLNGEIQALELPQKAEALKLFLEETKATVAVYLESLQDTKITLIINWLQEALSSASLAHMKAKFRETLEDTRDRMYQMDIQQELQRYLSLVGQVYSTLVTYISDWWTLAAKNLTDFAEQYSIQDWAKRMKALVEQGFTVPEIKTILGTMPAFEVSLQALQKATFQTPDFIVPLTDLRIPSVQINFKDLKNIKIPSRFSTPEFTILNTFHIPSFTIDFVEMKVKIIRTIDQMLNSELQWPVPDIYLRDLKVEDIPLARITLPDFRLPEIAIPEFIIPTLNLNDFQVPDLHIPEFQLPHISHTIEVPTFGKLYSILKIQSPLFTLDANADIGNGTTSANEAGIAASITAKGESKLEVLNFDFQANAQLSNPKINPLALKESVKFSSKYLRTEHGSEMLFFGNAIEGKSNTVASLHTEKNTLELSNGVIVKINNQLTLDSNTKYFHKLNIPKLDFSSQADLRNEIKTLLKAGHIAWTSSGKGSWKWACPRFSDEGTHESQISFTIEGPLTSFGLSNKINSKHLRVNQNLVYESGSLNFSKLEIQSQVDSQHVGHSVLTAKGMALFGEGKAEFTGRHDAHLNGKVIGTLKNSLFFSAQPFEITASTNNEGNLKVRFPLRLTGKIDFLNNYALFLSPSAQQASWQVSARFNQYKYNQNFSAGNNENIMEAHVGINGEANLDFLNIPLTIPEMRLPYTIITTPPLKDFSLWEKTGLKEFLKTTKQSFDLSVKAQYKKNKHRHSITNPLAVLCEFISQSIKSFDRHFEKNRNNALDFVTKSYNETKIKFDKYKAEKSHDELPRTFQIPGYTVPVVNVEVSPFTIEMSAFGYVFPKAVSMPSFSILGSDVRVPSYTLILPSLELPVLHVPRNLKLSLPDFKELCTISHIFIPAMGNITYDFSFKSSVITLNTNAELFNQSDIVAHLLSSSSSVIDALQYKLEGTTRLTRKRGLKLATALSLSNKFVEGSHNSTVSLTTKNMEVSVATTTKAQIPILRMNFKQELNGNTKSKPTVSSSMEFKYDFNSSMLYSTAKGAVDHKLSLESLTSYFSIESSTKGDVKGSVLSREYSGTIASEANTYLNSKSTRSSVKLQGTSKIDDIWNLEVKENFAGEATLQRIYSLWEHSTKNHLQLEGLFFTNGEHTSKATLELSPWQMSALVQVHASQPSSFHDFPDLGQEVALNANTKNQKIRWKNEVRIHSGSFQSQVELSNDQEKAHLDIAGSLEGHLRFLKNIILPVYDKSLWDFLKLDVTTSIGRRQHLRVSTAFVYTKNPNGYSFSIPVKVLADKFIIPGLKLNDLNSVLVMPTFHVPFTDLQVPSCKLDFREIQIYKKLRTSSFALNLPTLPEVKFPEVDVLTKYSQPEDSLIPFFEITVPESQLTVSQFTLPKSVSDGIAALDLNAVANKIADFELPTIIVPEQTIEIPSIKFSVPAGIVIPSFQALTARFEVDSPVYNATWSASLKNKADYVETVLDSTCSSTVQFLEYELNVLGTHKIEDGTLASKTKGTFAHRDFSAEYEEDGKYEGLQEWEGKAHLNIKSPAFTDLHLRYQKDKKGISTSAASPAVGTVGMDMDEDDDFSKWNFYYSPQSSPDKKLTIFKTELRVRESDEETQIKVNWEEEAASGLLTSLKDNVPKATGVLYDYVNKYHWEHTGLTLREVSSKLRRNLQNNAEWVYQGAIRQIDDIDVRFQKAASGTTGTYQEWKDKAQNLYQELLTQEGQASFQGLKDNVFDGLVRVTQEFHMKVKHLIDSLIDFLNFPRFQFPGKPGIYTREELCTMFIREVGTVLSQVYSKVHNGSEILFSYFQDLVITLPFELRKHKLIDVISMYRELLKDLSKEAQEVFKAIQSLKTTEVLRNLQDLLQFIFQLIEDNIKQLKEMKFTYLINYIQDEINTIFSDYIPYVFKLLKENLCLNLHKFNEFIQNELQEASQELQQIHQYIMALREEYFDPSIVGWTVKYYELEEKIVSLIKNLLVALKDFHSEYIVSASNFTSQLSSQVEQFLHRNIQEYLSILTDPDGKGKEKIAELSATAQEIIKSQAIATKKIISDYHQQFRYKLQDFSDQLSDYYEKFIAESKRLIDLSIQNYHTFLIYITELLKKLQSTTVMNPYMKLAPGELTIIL

“human low density lipoprotein receptor (hLDLR) (from UniProt P01130 22-860)” yielded a reduction of serum cholesterol in LAHB mice after AAV8.TBG.hLDLR (% reduction of serum cholesterol) of 30.
